biological target: moesin FERM domain, P26038; assay: FP; details: modification not given
Sequence (P26038 2-295): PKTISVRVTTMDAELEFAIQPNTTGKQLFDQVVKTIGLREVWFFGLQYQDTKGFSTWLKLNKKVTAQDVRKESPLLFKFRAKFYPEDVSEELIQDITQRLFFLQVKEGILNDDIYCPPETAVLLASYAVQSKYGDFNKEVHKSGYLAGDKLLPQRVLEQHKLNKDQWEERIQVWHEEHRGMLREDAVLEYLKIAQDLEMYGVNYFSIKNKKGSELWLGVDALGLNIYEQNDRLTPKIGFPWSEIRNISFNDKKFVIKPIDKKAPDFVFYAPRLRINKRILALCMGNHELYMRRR

Binder	Kd
LEFADFYAFRSSYPDH	50 µM
LEFADAYDFRSSYPDH	85 µM
LEFADFYDFRSSAPDH	2.8 µM
LEAADFYDFRSSYPDH	2.3 µM
TNGAYSVNTFKEHHST	0.11 µM
TNGYYSVNTFKEHHST	0.1 µM
